# According to patent US20050196844:
# Tested on: E. coli synthesized tau (352 residue isoform), non-phosphorylated
row,Substance,"in vitro kinase reaction, immunoblot with anti-PY18 and 4G10"
1,fyn tyrosine kinase (Upstate Biotechnologies),fyn kinased tyr18 in vitro
2,src tyrosine kinase (Upstate Biotechnologies),Identical results were observed for src.
